Earlier results in article PMC10687467.

Experiments:
LRP-2 (Homo sapiens) = LRP-2 (Homo sapiens) (UniProt P98164)
[1] = biological target: LDL receptor (Homo sapiens) (UniProt P01130)
ApoER2 (Homo sapiens) = ApoER2 (Homo sapiens) (UniProt Q14114)
[2] = biological target: VLDL receptor (Homo sapiens) (UniProt P98155)

Chain of LRPAP1 (P30533 35-357): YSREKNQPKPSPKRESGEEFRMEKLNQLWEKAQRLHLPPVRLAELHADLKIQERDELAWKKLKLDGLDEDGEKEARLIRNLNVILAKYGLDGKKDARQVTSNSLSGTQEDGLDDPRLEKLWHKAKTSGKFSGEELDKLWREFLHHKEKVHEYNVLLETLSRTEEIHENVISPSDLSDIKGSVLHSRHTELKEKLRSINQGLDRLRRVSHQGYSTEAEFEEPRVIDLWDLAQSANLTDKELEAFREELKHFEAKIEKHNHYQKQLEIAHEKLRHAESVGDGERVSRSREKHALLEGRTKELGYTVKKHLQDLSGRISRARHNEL
Chain of LDL receptor (Homo sapiens) (P01130 22-788): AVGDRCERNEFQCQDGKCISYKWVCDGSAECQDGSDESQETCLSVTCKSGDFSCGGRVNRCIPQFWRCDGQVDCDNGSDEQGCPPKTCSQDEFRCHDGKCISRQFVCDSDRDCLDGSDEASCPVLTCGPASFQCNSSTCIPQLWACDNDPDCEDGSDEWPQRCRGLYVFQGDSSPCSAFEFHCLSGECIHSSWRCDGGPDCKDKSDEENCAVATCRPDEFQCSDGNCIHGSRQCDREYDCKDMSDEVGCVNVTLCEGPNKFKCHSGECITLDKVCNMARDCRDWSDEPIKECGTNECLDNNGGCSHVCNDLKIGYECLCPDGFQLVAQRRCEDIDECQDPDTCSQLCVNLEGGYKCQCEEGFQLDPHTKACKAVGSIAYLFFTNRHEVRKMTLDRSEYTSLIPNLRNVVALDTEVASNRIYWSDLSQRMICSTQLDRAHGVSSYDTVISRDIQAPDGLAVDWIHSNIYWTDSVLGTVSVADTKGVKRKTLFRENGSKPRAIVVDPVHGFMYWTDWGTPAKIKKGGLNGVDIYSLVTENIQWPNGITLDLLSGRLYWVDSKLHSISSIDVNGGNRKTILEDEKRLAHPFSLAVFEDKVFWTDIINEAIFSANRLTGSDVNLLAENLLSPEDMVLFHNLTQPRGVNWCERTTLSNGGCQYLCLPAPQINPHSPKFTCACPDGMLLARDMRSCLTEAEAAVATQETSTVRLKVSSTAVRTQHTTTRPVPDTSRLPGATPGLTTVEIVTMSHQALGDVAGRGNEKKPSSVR
Chain of ApoER2 (Homo sapiens) (Q14114 33-826): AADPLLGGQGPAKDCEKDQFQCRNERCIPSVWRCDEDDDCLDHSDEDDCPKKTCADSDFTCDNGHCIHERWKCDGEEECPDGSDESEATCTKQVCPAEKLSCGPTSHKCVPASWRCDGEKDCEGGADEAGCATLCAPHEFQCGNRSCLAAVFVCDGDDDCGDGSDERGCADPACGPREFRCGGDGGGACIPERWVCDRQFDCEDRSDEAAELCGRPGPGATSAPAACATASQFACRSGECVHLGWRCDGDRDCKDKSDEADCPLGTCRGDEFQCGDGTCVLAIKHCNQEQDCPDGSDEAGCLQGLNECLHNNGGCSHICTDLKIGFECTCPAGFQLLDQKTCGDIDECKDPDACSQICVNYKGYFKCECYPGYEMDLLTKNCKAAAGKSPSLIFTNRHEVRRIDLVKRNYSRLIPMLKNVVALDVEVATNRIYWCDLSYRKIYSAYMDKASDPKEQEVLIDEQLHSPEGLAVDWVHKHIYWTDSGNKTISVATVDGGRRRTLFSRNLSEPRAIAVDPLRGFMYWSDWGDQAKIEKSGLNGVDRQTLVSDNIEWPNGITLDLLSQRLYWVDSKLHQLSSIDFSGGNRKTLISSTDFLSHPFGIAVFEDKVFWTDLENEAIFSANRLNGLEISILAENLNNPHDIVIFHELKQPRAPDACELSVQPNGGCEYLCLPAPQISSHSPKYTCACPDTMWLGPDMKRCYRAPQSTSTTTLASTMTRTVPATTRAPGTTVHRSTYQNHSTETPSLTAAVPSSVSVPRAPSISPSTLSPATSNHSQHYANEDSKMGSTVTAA

Kd (LRP-2 (Homo sapiens)): 8 nM | Kd [1]: 250 nM | Kd (ApoER2 (Homo sapiens)): 5 nM | Kd [2]: 0.7 nM
Substance: LRPAP1 (from UniProt P30533)
